In patent publication US5403737A, “Serine protease variants having peptide ligase activity” (priority 1993, dated 1995) one finds esterase/amidase data, which are given here for one molecule.

This assay in a line: Esterase activity: hydrolysis of an activated ester substrate (Table III). Format: biochemical. To be noted: ratio of the apparent second order rate constants (kcat/KM), Sbz versus pNA substrate. On the procedure: Table III: Kinetic constants for the hydrolysis of an amide substrate (s-Ala-Ala-Pro-Phe-pNA) and for an activated ester substrate (s-Ala-Ala-Pro-Phe-Sbz). The ratio of esterase to amidase activities is the ratio of the apparent second order rate constants (kcat/KM). The aminolysis to hydrolysis ratio was investigated using the thiobenzyl ester substrate with 3.6 mM of the dipeptide Ala-Phe-amide as the nucleophile.
Kinetic Assays. The esterase and amidase activities were obtained from initial rate measurements using a Kontron Uvikon 860 spectrophotometer. The assay for esterase activity utilized the substrate s-Ala-Ala-Pro-Phe-Sbz at (25°±0.2° C.) in 100 mM Tris-HCl (pH 8.60), 4% (v/v) dimethylsulfoxide, 0.005% (v/v) Tween 80. With the non-cysteine containing proteases, DTNB (Ellman (1959), Arch. Biochem. Biophys., 82, 70-77) was added to a concentration of 37.5 μM to visualize the release of thiolbenzoate upon hydrolysis of the substrate. […] The amidase activities were measured under identical conditions by following the increase in absorbance at 412 nm upon hydrolysis of p-nitroanilide from s-Ala-Ala-Pro-Phe-pNA.

B1: wild type: wild type subtilisin (BPN') from Bacillus amyloliquefaciens (protein, UniProt P00782 108-382, looked up)
Subtilisin BPN': AQSVPYGVSQIKAPALHSQGYTGSNVKVAVIDSGIDSSHPDLKVAGGASMVPSETNPFQDNNSHGTHVAGTVAALNNSIGVLGVAPSASLYAVKVLGADGSGQYSWIINGIEWAIANNMDVINMSLGGPSGSAALKAAVDKAVASGVVVVAAAGNEGTSGSSSTVGYPGKYPSVIAVGAVDSSNQRASFSSVGPELDVMAPGVSIQSTLPGNKYGAYNGTSMASPHVAGAAALILSKHPNWTNTQVRSSLENTTTKLGDSFYYGKGLINVQAAAQ
As to B1, the esterase/amidase stood at 4.8.
